{"source": "the supplement of paper PMC10598134", "assay": "collision cross section of modified peptide (TIMS, N2, iRT-aligned); higher = larger / more extended gas-phase ion", "summary_of_the_method": "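Values are averages of 1–3 technical replicates of the most abundant feature for each charge state. Collision cross section was obtained from the Mason-Schamp equation after 1/K0 calibration with three reference ions and run-wise alignment to the median iRT peptide deviation. Synthetic peptide pools (iRT standard spiked 1:40) were separated on a 120-min nanoflow C18 gradient at 60 °C, analysed on a timsTOF Pro/HT (dda-PASEF, nitrogen, ~2.4 mbar) and identified with MaxQuant.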", "key": {"[1]": {"conditions": "charge state: 2, modification: Formyl"}, "[2]": {"conditions": "charge state: 2, modification: GlyGly (K)"}, "[3]": {"conditions": "charge state: 3, modification: GlyGly (K)"}, "[4]": {"conditions": "charge state: 3, modification: Methyl (K)"}, "[5]": {"conditions": "charge state: 2, modification: Glutarylation"}, "[6]": {"conditions": "charge state: 3, modification: Hydroxyproline"}, "[7]": {"conditions": "charge state: 2, modification: Succinyl"}, "[8]": {"conditions": "charge state: 2, modification: Citrullination (R)"}, "[9]": {"conditions": "charge state: 3, modification: Citrullination (R)"}, "[10]": {"conditions": "charge state: 3, modification: Glutarylation"}, "[11]": {"conditions": "charge state: 3, modification: Succinyl"}, "[12]": {"conditions": "charge state: 2, modification: Crotonyl"}, "[13]": {"conditions": "charge state: 2, modification: Dimethyl (K)"}, "[14]": {"conditions": "charge state: 3, modification: Dimethyl (K)"}}, "note": "± gives the standard deviation.", "data": [{"substance": "LLEEEDSKLK [_LLEEEDSK(Formyl)LK_]", "values": [{"measurement": "collision cross section", "setting": "[1]", "value": "374.12 ± 0.55", "unit": "Å²"}]}, {"substance": "IVFSGNLFQHQEDSKK [_IVFSGNLFQHQEDSK(Formyl)K_]", "values": [{"measurement": "collision cross section", "setting": "[1]", "value": "496.72 ± 1.3", "unit": "Å²"}, {"measurement": "collision cross section", "setting": "charge state: 3, modification: Formyl", "value": "530.13 ± 1.3", "unit": "Å²"}]}, {"substance": "VIVGGSSEYK [_VIVGGSSEY(Nitro (Y))K_]", "values": [{"measurement": "collision cross section", "setting": "charge state: 2, modification: Nitro (Y)", "value": "344.24 ± 0.72", "unit": "Å²"}]}, {"substance": "IVFSGNLFQHQEDSKK [_IVFSGNLFQHQEDSK(GlyGly (K))K_]", "values": [{"measurement": "collision cross section", "setting": "[2]", "value": 491.77, "unit": "Å²"}, {"measurement": "collision cross section", "setting": "[3]", "value": "544.77 ± 1.6", "unit": "Å²"}]}, {"substance": "IGNSYFKEEK [_IGNSYFK(Trimethyl (K))EEK_]", "values": [{"measurement": "collision cross section", "setting": "charge state: 2, modification: Trimethyl (K)", "value": "378.87 ± 0.63", "unit": "Å²"}, {"measurement": "collision cross section", "setting": "charge state: 3, modification: Trimethyl (K)", "value": "441.97 ± 1.8", "unit": "Å²"}]}, {"substance": "TTGFYSGFSEVAEKR [_TTGFYSGFSEVAEK(Methyl (K))R_]", "values": [{"measurement": "collision cross section", "setting": "charge state: 2, modification: Methyl (K)", "value": "449.23 ± 2.4", "unit": "Å²"}, {"measurement": "collision cross section", "setting": "[4]", "value": "510.26 ± 2", "unit": "Å²"}]}, {"substance": "ATVASSTQKFQDLGVK [_ATVASSTQK(GlyGly (K))FQDLGVK_]", "values": [{"measurement": "collision cross section", "setting": "[2]", "value": "480.31 ± 1.5", "unit": "Å²"}, {"measurement": "collision cross section", "setting": "[3]", "value": "500.25 ± 0.34", "unit": "Å²"}]}, {"substance": "ISSNFSSIIAEKLR [_ISSNFSSIIAEK(Gluratylation)LR_]", "values": [{"measurement": "collision cross section", "setting": "[5]", "value": "430.8 ± 0.96", "unit": "Å²"}]}, {"substance": "IHNAENIQPGEQKYEYK [_IHNAENIQPGEQK(Methyl (K))YEYK_]", "values": [{"measurement": "collision cross section", "setting": "[4]", "value": "526.19 ± 0.79", "unit": "Å²"}]}, {"substance": "VGYPGPSGPLGAR [_VGYP(Hydroxyproline)GPSGPLGAR_]", "values": [{"measurement": "collision cross section", "setting": "charge state: 2, modification: Hydroxyproline", "value": "356.91 ± 0.79", "unit": "Å²"}, {"measurement": "collision cross section", "setting": "[6]", "value": "437.31 ± 1.7", "unit": "Å²"}]}, {"substance": "GFALVGVGSEASSKK [_GFALVGVGSEASSK(GlyGly (K))K_]", "values": [{"measurement": "collision cross section", "setting": "[2]", "value": "452.76 ± 1.4", "unit": "Å²"}, {"measurement": "collision cross section", "setting": "[3]", "value": "507.31 ± 14", "unit": "Å²"}]}, {"substance": "IDLPAENSNSETIIITGKR [_IDLPAENSNSETIIITGK(Succinyl)R_]", "values": [{"measurement": "collision cross section", "setting": "[7]", "value": "492.62 ± 0.3", "unit": "Å²"}]}, {"substance": "TTEETSKPK [_TTEETSK(Formyl)PK_]", "values": [{"measurement": "collision cross section", "setting": "[1]", "value": "332.42 ± 4.9", "unit": "Å²"}]}, {"substance": "ITASLCDLKSR [_ITASLCDLK(Succinyl)SR_]", "values": [{"measurement": "collision cross section", "setting": "[7]", "value": "384.23 ± 0.76", "unit": "Å²"}]}, {"substance": "YGRGQLNYPLPDFSK [_YGR(Citrullination (R))GQLNYPLPDFSK_]", "values": [{"measurement": "collision cross section", "setting": "[8]", "value": "439.93 ± 0.95", "unit": "Å²"}, {"measurement": "collision cross section", "setting": "[9]", "value": 492.79, "unit": "Å²"}]}, {"substance": "VNIGQGSHPQKVK [_VNIGQGSHPQK(Gluratylation)VK_]", "values": [{"measurement": "collision cross section", "setting": "[5]", "value": "424.75 ± 1.8", "unit": "Å²"}, {"measurement": "collision cross section", "setting": "[10]", "value": "494.72 ± 8.3", "unit": "Å²"}]}, {"substance": "ITGKNQVTATK [_ITGK(Succinyl)NQVTATK_]", "values": [{"measurement": "collision cross section", "setting": "[7]", "value": "364.93 ± 0.74", "unit": "Å²"}, {"measurement": "collision cross section", "setting": "[11]", "value": 446.25, "unit": "Å²"}]}, {"substance": "SLEEEGAAHSGKR [_SLEEEGAAHSGK(hydroxyisobutyryl)R_]", "values": [{"measurement": "collision cross section", "setting": "charge state: 2, modification: hydroxyisobutyryl", "value": "421.1 ± 1.9", "unit": "Å²"}, {"measurement": "collision cross section", "setting": "charge state: 3, modification: hydroxyisobutyryl", "value": "479.68 ± 2.1", "unit": "Å²"}]}, {"substance": "VDVEVPDVSLEGPEGKLK [_VDVEVPDVSLEGPEGK(Crotonyl)LK_]", "values": [{"measurement": "collision cross section", "setting": "[12]", "value": "469.01 ± 1.1", "unit": "Å²"}]}, {"substance": "DLGKFQVATDALK [_DLGK(Dimethyl (K))FQVATDALK_]", "values": [{"measurement": "collision cross section", "setting": "[13]", "value": "400.58 ± 0.77", "unit": "Å²"}, {"measurement": "collision cross section", "setting": "[14]", "value": "478.59 ± 14", "unit": "Å²"}]}, {"substance": "KFGVLSDNFK [_K(Gluratylation)FGVLSDNFK_]", "values": [{"measurement": "collision cross section", "setting": "[5]", "value": "380.33 ± 0.73", "unit": "Å²"}]}, {"substance": "TTEETSKPK [_TTEETSK(Propionyl)PK_]", "values": [{"measurement": "collision cross section", "setting": "charge state: 2, modification: Propionyl", "value": "342.02 ± 0.39", "unit": "Å²"}]}, {"substance": "GGSAGGRGFFR [_GGSAGGR(Methyl (R))GFFR_]", "values": [{"measurement": "collision cross section", "setting": "charge state: 2, modification: Methyl (R)", "value": "365.18 ± 0.78", "unit": "Å²"}, {"measurement": "collision cross section", "setting": "charge state: 3, modification: Methyl (R)", "value": "426.87 ± 4.1", "unit": "Å²"}]}, {"substance": "VLATQPGPGRGR [_VLATQPGPGR(Citrullination (R))GR_]", "values": [{"measurement": "collision cross section", "setting": "[8]", "value": "364.01 ± 0.27", "unit": "Å²"}, {"measurement": "collision cross section", "setting": "[9]", "value": 447.25, "unit": "Å²"}]}, {"substance": "STGLELETPSLVPVKK [_STGLELETPSLVPVK(Gluratylation)K_]", "values": [{"measurement": "collision cross section", "setting": "[5]", "value": "457.67 ± 1.1", "unit": "Å²"}, {"measurement": "collision cross section", "setting": "[10]", "value": "527.31 ± 1.8", "unit": "Å²"}]}, {"substance": "KDYQPGITFIVVQK [_KDYQP(Hydroxyproline)GITFIVVQK_]", "values": [{"measurement": "collision cross section", "setting": "[6]", "value": 502.4, "unit": "Å²"}]}, {"substance": "IINEPTAAAIAYGLDKK [_IINEPTAAAIAYGLDK(Dimethyl (K))K_]", "values": [{"measurement": "collision cross section", "setting": "[13]", "value": "490.46 ± 1.8", "unit": "Å²"}, {"measurement": "collision cross section", "setting": "[14]", "value": "554.13 ± 0.54", "unit": "Å²"}]}, {"substance": "SKHLQEQLNELK [_SK(GlyGly (K))HLQEQLNELK_]", "values": [{"measurement": "collision cross section", "setting": "[2]", "value": "420.45 ± 1.4", "unit": "Å²"}, {"measurement": "collision cross section", "setting": "[3]", "value": "495.28 ± 2", "unit": "Å²"}]}, {"substance": "DFDTALKHYDK [_DFDTALK(Succinyl)HYDK_]", "values": [{"measurement": "collision cross section", "setting": "[7]", "value": "404.59 ± 1.1", "unit": "Å²"}, {"measurement": "collision cross section", "setting": "[11]", "value": "465.49 ± 2.9", "unit": "Å²"}]}, {"substance": "DYSAPVNFISAGLKK [_DYSAPVNFISAGLK(Acetyl (K))K_]", "values": [{"measurement": "collision cross section", "setting": "charge state: 2, modification: Acetyl (K)", "value": "433.43 ± 2.4", "unit": "Å²"}, {"measurement": "collision cross section", "setting": "charge state: 3, modification: Acetyl (K)", "value": "518.95 ± 1.1", "unit": "Å²"}]}, {"substance": "YRGDYDR [_YR(Citrullination (R))GDYDR_]", "values": [{"measurement": "collision cross section", "setting": "[8]", "value": "333.6 ± 1.8", "unit": "Å²"}]}, {"substance": "LTSLNVKYNNDK [_LTSLNVK(Crotonyl)YNNDK_]", "values": [{"measurement": "collision cross section", "setting": "[12]", "value": "414.39 ± 1.1", "unit": "Å²"}]}]}
